Molecular target: Cre recombinase (UniProt P06956 P06956:1-343)
Experiment: cell_activity; plaque formation in cotransfected 293Cre4 cells relative to homologous recombination; pCA36loxΔ gave plaques only in 293Cre cells (Table 2)
Conditions: tags: stably expressed in 293Cre4 cells or from shuttle plasmid cassette (pLC2); chain copies: 4; BamHI/BglII overhangs
Description: The efficiency of Cre/lox mediated recombination was compared with that of homologous recombination, by measuring the numbers of virus plaques obtained from cotransfections of 293 cells versus the numbers obtained following cotransfections of 293Cre4 cells (see, for example, U.S. patent application Ser. No. 08/473,168, filed Jun. 7, 1995; see also WO96/40955, hereby incorporated by reference).

Cre recombinase, sequence (P06956 whole entry, one chain of several): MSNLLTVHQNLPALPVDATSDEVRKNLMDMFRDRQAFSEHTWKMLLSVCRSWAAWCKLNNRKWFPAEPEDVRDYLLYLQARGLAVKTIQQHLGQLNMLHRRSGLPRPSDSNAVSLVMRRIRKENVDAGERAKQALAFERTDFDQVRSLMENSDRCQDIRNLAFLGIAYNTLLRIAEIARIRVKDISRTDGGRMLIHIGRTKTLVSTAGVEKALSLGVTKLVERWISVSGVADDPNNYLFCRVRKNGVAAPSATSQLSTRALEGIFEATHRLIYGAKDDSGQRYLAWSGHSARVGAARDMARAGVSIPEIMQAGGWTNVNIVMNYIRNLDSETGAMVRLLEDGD

B1: loxP linker AB3233/3234 (in pBHG10lox and pCA36lox / pCA36loxΔ) (dsDNA)
DNA 1: GATCCAATAACTTCGTATAGCATACATTATACGAAGTTATAAGTACTGAATTCG
DNA 2: GATCCGAATTCAGTACTTATAACTTCGTATAATGTATGCTATACGAAGTTATTG
relative plaque formation efficiency: 35 fold

— patent US20040142470, “Recombinase-based system for construction of adenovirus vectors” (published 2004)
